Results published in patent US8003609B2, “Method for ameliorating pain by modification of NMDA receptors through inhibition of Src” (The Hospital for Sick Children, priority 2004, dated 2011).

Assays:
[1] = biological target: T1, association of Src with the NMDAR complexes (Rattus norvegicus, UniProt P11662); experiment: co-immunoprecipitation of Src with NMDARs from PSD proteins; assay type: binding
T1 construct: from tissue; host or cells: rat brain post-synaptic density fraction
Description: (§1) Detailed protocols for in vitro binding assays, pull down assays, immunoblotting, and co-immunoprecipitation techniques can be found in Pelkey et al. (Neuron 34:127-138 2002).
(§2) Post-synaptic density proteins (Kennedy et al. Proceedings of the National Academy of Science USA 80:7357-7361 1983) were prepared from rat brain as described in detail (Pelkey et al. Neuron 34:127-138 2002). Cellular fractionation of rat brain tissue into nuclear, heavy mitochondrial, light mitochondrial, microsomal, and cytosolic fractions was performed by differential centrifugation of tissue homogenate in 0.25 M sucrose/10 mM HEPES-NaOH, 1 mM EDTA, pH 7.4 with 2 μg each of aprotinin, pepstatin A, and leupeptin (Sigma, St. Louis, Mo.) at 4° C. Nuclei were pelleted by centrifugation at 1 000 g for 10 minutes, the supernatant was removed and spun at 3 000 g for 10 minutes to obtain a heavy mitochondrial pellet. The supernatant was removed and spun at 16 000 g for 15 minutes to obtain a light mitochondrial pellet. The supernatant was removed and spun at 100 000 g for 1 hour to obtain a microsomal pellet and the cytosolic fraction. All pellets were then resuspended in RIPA buffer (50 mM Tris pH 7.6, 150 mM NaCl, 1 mM EDTA, 1% NP-40, 2.5 mg/ml NaDOC, 1 mM Na3VO4 1 mM PMSF, and 2 μg/ml each of protease inhibitors). The light mitochondrial fraction was used in subsequent experiments. […]

[2] = biological target: T2, interaction between Src and ND2 (Rattus norvegicus, UniProt P11662); experiment: co-immunoprecipitation of ND2 by anti-Src from PSD proteins; assay type: binding; conditions: PSD proteins incubated with peptide
T2 construct: from tissue; host or cells: rat brain post-synaptic density fraction
T2 sequence (P11662 1-346): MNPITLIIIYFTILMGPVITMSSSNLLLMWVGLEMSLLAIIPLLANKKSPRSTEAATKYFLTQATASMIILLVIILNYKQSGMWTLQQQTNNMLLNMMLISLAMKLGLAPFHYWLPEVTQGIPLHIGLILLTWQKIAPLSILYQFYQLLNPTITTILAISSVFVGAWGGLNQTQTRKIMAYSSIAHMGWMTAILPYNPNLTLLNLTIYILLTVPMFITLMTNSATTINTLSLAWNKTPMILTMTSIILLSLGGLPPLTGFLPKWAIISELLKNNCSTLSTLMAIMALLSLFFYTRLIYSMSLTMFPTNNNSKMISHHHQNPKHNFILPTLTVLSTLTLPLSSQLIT
Description: as §1, §2

[3] = tested on: NMDAR; experiment: mEPSC whole cell recordings in cultured hippocampal neurons, NMDAR component; assay type: cell-based, rat
Description: Fetal rat hippocampal neurons were prepared, cultured, and used for electrophysiological recordings 12-17 days after plating. Methods for whole cell recordings are described in Pelkey et al. (Neuron 34:127-138 2002).
In contrast, in control experiments administering EPQ(pY)EEIPIA (SEQ ID NO:5) increased the NMDAR component of mEPSCs by 172±28% and application of Src40-58 decreased the NMDAR component to 56±4% (FIGS. 5D-F). […] Composite traces are shown in black, the NMDAR component in dark grey, and the AMPAR component in light grey. Scale bars are 50 ms/10 pA. […] NMDA component data were calculated as Q20′/Q2′, and AMPA component data were calculated as A20′/A2′. […] An * indicates a significant difference, Student's t-test, p<0.05. Taking our results together, it is concluded that Src-dependent regulation of the activity of NMDARs depends on expression of ND2 through its anchoring of Src to the NMDAR complex.

[4] = biological target: T3, interaction between the ND2.1-GST and Src unique domain proteins (Homo sapiens, UniProt P03891, A265T); experiment: ND2.1-GST probed with biotinylated Src unique domain in the presence of peptide or antibody; assay type: binding; conditions: in vitro, ND2.1-GST incubated with peptide
T3 construct: made in house; host or cells: BL21 bacteria
Text: as §1
ND2 acts as an adapter protein for Src. […] Furthermore, the effect of Src40-58 on the interaction between Src and ND2 was examined (FIGS. 4D and 4E). […] Thus, it was concluded that amino acids 40-58 of Src interact with the region spanned by ND2.1, thereby mediating the binding between the Src unique domain and ND2.

[5] = biological target: T4, ND2 association with NMDAR complexes (Rattus norvegicus, UniProt P11662); experiment: co-immunoprecipitation of ND2 with NMDARs from PSD proteins; assay type: binding
T4 construct: from tissue; host or cells: rat brain post-synaptic density fraction
Description: as §1, §2

T3 sequence (P03891 239-318 A265T): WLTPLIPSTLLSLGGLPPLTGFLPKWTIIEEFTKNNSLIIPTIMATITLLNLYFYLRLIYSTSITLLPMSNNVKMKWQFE

Substance: Src40-58: peptide comprising amino acid residues 40-58 of SEQ ID NO:4 (Src) (PASADGHRGPSAAFAPAAA; listed as Homo sapiens)
- co-immunoprecipitation of Src with NMDARs [1]: suppressed
- co-immunoprecipitation of ND2 by anti-Src [2]: prevented
- immunoprecipitation of Src from PSDs [2]: did not affect
- NMDAR component of mEPSCs, decreased to ([3]; control experiments, cultured hippocampal neurons): 56±4%
- NMDAR component of the mEPSCs ([3]; neurons treated with chloramphenicol for 48 hours): not affected
- effect on ND2.1-GST pulling down the Src unique domain protein [4]: prevented
- co-immunoprecipitation of ND2 with NMDARs [5]: not affected
